# Test results published in publication PMC12343972 (Nature Communications, 2025).
# T1: S. cerevisiae Rad50-E1235Q (S. cerevisiae, UniProt P12753, E1235Q)
# T1 sequence: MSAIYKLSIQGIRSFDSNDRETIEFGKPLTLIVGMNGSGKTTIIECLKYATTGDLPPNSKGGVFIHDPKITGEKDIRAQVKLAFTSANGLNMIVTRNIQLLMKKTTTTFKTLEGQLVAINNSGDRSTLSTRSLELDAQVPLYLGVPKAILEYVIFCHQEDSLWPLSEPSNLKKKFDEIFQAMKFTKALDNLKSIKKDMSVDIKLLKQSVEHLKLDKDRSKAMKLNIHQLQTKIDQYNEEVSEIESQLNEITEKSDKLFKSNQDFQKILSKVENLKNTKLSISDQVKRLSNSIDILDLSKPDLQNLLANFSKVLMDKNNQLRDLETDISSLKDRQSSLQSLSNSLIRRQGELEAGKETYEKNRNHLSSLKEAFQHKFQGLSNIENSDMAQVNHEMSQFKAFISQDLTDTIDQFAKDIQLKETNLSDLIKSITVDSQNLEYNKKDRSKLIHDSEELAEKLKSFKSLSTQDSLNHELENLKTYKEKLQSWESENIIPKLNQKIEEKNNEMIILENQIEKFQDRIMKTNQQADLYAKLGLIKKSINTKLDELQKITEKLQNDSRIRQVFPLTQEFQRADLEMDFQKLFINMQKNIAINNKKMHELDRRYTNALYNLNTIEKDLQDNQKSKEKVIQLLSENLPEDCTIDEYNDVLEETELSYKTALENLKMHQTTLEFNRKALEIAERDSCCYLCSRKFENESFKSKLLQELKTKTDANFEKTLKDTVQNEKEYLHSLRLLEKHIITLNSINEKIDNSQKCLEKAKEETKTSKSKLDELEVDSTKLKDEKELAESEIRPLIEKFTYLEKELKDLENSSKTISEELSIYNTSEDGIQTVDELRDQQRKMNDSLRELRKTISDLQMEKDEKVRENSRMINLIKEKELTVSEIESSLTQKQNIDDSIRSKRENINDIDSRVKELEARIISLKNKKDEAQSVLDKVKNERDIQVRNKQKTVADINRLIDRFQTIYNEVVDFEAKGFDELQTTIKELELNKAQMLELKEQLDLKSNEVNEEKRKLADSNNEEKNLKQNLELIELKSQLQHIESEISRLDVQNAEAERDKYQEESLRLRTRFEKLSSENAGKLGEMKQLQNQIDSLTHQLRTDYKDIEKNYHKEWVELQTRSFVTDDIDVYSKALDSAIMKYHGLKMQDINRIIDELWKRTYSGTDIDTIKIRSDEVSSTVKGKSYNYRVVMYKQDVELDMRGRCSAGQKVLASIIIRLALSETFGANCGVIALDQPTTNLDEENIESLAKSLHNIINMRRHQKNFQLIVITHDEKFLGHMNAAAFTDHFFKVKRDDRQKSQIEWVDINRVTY
# B1: 83-mer dsDNA (cryo-EM) (dsDNA)
# DNA 1: TTGATAAGAGGTCATTTTTGCGGATGGCTTAGAGCTTAATTGCTGAATCTGGTGCTGTAGCTCAACATGTTTTAAATATGCAA
# DNA 2: TTGCATATTTAAAACATGTTGAGCTACAGCACCAGATTCAGCAATTAAGCTCTAAGCCATCCGCAAAAATGACCTCTTATCAA
# B2: S. cerevisiae Mre11 with a C-terminal 1xFLAG tag (natural protein)
# chain: MDYPDPDTIRILITTDNHVGYNENDPITGDDSWKTFHEVMMLAKNNNVDMVVQSGDLFHVNKPSKKSLYQVLKTLRLCCMGDKPCELELLSDPSQVFHYDEFTNVNYEDPNFNISIPVFGISGNHDDASGDSLLCPMDILHATGLINHFGKVIESDKIKVVPLLFQKGSTKLALYGLAAVRDERLFRTFKDGGVTFEVPTMREGEWFNLMCVHQNHTGHTNTAFLPEQFLPDFLDMVIWGHEHECIPNLVHNPIKNFDVLQPGSSVATSLCEAEAQPKYVFILDIKYGEAPKMTPIPLETIRTFKMKSISLQDVPHLRPHDKDATSKYLIEQVEEMIRDANEETKQKLADDGEGDMVAELPKPLIRLRVDYSAPSNTQSPIDYQVENPRRFSNRFVGRVANGNNVVQFYKKRSPVTRSKKSGINGTSISDRDVEKLFSESGGELEVQTLVNDLLNKMQLSLLPEVGLNEAVKKFVDKDEKTALKEFISHEISNEVGILSTNEEFLRTDDAEEMKALIKQVKRANSVRPTPPKENDETNFAFNGNGLDSFRSSNREVRTGSPDITQSHVDNESRITHISQAESSKPTSKPKRVRTATKKKIPAFSDSTVISDAENELGDNNDAQDDVDIDENDIIMVSTDEEDASYGLLNGRKTKTKTRPAASTKTASRRGKGRASRTPKTDILGSLLAKKRK
# Legend:
# [1] = target: Rad50 E1235Q (MREQ complex);Mre11 (Saccharomyces cerevisiae;Saccharomyces …, UniProt P12753;P32829 1-1312;1-692, E1235Q|); test: cryo-EM 3.2 A
# [2] = target: T1, S. cerevisiae Rad50-E1235Q; test: cryo-EM structure
Binder,binding result [1],binding result [2]
B1,binds,
B2,,binds
